The values that follow are results of earlier work, collected in paper PMC8291714.

The target of the data set is N protein (N-RNA ring) (Rabies lyssavirus) (UniProt Q8JXF6).
UniProt Q8JXF6, sequence (Q8JXF6 whole entry): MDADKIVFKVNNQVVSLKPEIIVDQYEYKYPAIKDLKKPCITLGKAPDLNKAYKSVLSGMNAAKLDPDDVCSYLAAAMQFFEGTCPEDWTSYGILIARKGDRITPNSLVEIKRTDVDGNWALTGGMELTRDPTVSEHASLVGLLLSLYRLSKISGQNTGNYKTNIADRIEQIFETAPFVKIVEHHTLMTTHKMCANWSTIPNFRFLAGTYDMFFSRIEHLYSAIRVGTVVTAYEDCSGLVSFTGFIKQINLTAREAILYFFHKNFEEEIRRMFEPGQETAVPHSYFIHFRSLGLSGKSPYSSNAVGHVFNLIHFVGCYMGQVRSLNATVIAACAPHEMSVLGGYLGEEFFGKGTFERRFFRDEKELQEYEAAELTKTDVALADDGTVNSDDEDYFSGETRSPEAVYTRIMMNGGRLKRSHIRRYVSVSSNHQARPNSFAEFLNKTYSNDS

P protein CTD (from UniProt P22363): the Kd (commonly the equilibrium constant for the complex coming apart) is 160 nM.
